# Results: PMC6450660
# Target: PI3KC3 complex II (PI3KC3-C2): VPS34, VPS15, BECN1, UVRAG (human) (UniProt Q8NEB9)
# Sequence (Q8NEB9 whole entry, chain 1 of 4): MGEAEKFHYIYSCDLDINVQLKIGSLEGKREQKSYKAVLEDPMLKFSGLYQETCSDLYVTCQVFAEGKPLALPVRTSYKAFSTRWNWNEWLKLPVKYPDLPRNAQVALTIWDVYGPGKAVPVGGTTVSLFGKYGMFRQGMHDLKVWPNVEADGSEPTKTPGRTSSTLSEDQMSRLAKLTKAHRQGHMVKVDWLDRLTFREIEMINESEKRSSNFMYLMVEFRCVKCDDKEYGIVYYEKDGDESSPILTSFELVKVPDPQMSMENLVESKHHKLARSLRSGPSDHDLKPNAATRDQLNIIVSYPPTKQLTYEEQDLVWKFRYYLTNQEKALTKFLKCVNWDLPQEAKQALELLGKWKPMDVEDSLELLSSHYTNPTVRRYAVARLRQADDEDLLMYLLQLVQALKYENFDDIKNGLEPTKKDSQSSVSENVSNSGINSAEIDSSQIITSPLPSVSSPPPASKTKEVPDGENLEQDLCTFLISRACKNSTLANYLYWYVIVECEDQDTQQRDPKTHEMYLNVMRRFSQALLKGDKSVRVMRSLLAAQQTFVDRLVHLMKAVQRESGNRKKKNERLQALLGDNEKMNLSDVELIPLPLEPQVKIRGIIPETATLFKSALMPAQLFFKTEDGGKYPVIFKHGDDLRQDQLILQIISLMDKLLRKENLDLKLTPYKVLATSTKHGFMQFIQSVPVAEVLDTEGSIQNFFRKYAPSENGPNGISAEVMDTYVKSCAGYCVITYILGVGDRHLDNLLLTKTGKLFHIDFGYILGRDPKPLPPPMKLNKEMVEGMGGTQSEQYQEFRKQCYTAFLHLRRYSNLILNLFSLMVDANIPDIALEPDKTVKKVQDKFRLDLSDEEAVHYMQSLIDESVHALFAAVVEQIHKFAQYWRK
# Sequence (Q99570 whole entry, chain 2 of 4, further chain): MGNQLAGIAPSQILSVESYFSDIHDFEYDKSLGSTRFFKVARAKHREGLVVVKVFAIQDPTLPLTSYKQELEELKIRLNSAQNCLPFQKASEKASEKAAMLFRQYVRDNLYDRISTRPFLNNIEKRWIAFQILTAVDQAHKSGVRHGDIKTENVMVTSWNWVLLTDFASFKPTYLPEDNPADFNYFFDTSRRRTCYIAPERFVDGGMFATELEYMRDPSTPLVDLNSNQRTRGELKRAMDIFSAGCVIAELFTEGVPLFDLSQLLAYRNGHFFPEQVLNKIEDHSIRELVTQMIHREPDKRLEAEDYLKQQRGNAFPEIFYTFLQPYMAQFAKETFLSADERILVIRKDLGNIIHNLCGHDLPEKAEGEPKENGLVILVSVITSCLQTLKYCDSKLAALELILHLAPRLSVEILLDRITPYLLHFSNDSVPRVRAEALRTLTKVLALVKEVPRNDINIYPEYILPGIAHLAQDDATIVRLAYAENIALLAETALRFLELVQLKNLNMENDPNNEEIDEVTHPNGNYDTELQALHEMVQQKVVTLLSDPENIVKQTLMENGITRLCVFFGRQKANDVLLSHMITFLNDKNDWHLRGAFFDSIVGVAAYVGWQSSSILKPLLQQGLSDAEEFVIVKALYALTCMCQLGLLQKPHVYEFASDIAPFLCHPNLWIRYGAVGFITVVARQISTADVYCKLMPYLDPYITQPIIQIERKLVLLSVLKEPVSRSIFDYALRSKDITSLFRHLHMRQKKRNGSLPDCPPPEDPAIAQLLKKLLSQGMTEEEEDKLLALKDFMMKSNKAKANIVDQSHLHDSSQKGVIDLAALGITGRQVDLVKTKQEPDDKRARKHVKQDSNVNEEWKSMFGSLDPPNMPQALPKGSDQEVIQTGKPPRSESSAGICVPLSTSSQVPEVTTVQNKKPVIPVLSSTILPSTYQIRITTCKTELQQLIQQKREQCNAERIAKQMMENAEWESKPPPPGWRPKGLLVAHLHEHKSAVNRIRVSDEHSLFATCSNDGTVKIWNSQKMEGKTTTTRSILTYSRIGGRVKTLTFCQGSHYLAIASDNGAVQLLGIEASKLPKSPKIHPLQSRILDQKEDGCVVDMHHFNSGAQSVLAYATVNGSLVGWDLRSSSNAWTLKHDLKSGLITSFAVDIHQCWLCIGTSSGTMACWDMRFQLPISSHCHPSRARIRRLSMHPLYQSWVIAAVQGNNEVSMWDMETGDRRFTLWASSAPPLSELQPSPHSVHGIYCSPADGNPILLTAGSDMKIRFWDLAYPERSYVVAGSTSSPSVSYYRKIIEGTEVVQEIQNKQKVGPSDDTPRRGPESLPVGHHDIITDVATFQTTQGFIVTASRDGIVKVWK
# Sequence (Q14457 whole entry, chain 3 of 4, further chain): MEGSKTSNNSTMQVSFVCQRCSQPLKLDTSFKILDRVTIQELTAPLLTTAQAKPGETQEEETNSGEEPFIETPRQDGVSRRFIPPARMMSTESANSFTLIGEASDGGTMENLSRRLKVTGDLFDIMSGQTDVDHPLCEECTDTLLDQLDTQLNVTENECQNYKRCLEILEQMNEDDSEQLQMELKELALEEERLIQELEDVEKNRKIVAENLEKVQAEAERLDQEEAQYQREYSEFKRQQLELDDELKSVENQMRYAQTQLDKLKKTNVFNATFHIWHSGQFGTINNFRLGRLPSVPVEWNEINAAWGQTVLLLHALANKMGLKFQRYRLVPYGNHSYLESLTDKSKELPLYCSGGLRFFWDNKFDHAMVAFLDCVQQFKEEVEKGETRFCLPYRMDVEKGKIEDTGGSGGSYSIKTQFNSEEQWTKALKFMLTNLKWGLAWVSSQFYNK
# Sequence (Q9P2Y5 whole entry, chain 4 of 4, further chain): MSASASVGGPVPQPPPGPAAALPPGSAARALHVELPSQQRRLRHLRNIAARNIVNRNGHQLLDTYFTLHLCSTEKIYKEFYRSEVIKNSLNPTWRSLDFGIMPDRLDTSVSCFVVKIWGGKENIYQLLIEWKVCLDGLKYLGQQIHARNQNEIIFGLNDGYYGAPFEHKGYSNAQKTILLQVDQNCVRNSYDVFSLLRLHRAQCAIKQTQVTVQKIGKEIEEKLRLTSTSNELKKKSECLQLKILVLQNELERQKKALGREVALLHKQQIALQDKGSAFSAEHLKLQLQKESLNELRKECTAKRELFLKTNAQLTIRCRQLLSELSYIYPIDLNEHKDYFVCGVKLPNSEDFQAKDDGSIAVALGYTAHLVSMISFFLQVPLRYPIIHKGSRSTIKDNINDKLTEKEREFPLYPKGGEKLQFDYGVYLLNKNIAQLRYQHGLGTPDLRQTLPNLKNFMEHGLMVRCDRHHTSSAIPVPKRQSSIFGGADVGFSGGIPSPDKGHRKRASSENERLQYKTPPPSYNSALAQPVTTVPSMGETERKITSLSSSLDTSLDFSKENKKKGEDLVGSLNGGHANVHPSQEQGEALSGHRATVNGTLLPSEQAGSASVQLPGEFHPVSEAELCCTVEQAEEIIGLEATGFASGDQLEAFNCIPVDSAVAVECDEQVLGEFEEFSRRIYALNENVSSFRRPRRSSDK
row,"PI3KC3-C2 lipid kinase activity on SUVs (ADP-Glo), complexes at 12.5 nM",Substance
1,2 fold,MBP tagged Rubicon PIKBD (PI3KC3-C2 binding domain) (from UniProt Q92622 1-972) (domain or fragment)
2,2 fold,MBP tagged Rubicon MR (middle region) (from UniProt Q92622 1-972) (domain or fragment)
